Assay results as given in patent US20120329986A1 (UNIVERSITE DE MONTREAL, published 2012).
Square brackets hold non-standard residues; d marks the D form. Ends that are not written are not given here. dTrp(2-Me) = Cc1[nH]c2ccccc2c1C[C@@H](N)C(=O)O; HAIC = not defined here

Molecular target: CD36 receptor (in the src-kinase cellular assay)
Assay: cell-based or functional assay

[HAIC][dTrp(2-Me)][dK]W[dF]K-NH2 (reading uncertain) [EP80317]
SRC-kinase cellular assay EC50: 26 nM
